In paper PMC5737657 (Nucleic Acids Research, 2017):

B1: VapC26 toxin with N-terminal (His)6 tag (native, co-expressed with VapB26) (natural protein)
chain: MIIDTSALLAYFDAAEPDHAAVSECIDSSADALVVSPYVVAELDYLVATRVGVDAELAVLRELAGGAWELANCGAAEIEQAARIVTKYQDQRIGIADAANVVLADRYRTRTILTLDRRHFSALRPIGGGRFTVIP
B2: VapB26 antitoxin (untagged, native, co-expressed with VapC26) (natural protein)
chain: MDKTTVYLPDELKAAVKRAARQRGVSEAQVIRESIRAAVGGAKPPPRGGLYAGSEPIARRVDELLAGFGER

What was measured:
VapB26 Y51E = VapB26 Y51E (Mycobacterium tuberculosis, UniProt O53778 1-71, Y51E); assay: co-purification on a Ni2+ affinity column
[1] = target: B1; assay: crystal structure

Binder	binding result (VapB26 Y51E)	binding result [1]
B1	binds	–
B2	–	binds
